We go through one protein from article PMC10920428, “Expression, purification, and characterization of transmembrane protein homogentisate solanesyltransferase” (Applied Microbiology and Biotechnology, 2024).

Substrate in data set [1]: CC(C)=CCC/C(C)=C/CC/C(C)=C/CO[P@@](=O)(O)OP(=O)(O)O
As to the kind of experiment: cells, lysate or membranes. To be noted: Mg2+ ([…] magnesium chloride in assay).

Substrate in data set [2]: O=C(O)Cc1cc(O)ccc1O
As to the kind of experiment: cells, lysate or membranes. To be noted: Mg2+ ([…] magnesium chloride in assay).

B1: homogentisate solanesyltransferase (CrHST) (Chlamydomonas reinhardtii) (protein)
chain: SAAVPAPLPNGGNDESFAQKLANFPNAFWKFLRPHTIRGTILGTTAVTAKVLMENPGCIDWALLPKALLGLVALLCGNGYIVGINQIYDVDIDVVNKPFLPVASGELSPALAWGLCLSLAAAGAGIVAANFGNLITSLYTFGLFLGTVYSVPPLRLKQYAVPAFMIIATVRGFLLNFGVYSATRAALGLPFEWSPAVSFITVFVTLFATVIAITKDLPDVEGDQANNISTFATRMGVRNVALLAIGLLMANYLGAIALALTYSTAFNVPLMAGAHAILAATLALRTLKLHAASYSREAVASFYRWIWNLFYAEYALLPFL
The Km is the concentration of substrate that gives half-maximal velocity. As for B1, the Michaelis-Menten constant (Km) in data set [1] worked out at 22.76 ± 1.70 µM; in data set [2], 48.54 ± 3.89 µM.
